Experimental data as given in patent publication US12534531 (MacroGenics, dated 2026).

Assays:
[1] = biological target: T1, biotinylated-soluble human LAG-3-Fc fusion protein (human, UniProt P18627 23-450, biotinylated (site not stated)); assay: FACS: inhibition of shLAG-3-Fc binding to MHC II on Daudi cells (column head prints EC50); SM; SD 0.0571
T1 construct: whole entry named; also called shLAG-3; shLAG-3-Fc; not shown: Fc
T1 sequence: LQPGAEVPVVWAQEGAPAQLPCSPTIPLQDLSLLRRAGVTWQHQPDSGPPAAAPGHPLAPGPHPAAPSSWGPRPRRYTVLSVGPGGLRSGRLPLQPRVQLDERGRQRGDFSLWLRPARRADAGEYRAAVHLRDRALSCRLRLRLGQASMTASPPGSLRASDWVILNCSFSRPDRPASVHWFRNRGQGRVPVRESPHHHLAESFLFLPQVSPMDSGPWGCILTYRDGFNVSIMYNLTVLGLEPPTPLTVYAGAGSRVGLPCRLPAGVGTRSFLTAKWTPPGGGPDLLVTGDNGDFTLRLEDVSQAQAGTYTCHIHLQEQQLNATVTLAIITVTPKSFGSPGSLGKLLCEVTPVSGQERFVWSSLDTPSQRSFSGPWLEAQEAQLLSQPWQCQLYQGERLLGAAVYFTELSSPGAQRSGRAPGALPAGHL

[2] = biological target: T2, human PD-1 expressed on the surface of cells (NSO cells expressing human PD-1; MNFAT-luc2/PD-1 Jurkat cells) (human, UniProt Q15116 21-288); assay: FACS: inhibition of sPD-L2 binding to PD-1 on NSO cells; SM; SD 0.5438
T2 construct: also called cell surface PD-1; PDCD1 transfected NSO cells expressing PD-1

[3] = biological target: T2, human PD-1 expressed on the surface of …; assay: FACS: inhibition of sPD-L1 binding to PD-1 on NSO cells; SM; SD 0.3097
[4] = biological target: T1, biotinylated-soluble human LAG-3-Fc …; assay: FACS: inhibition of shLAG-3-Fc binding to MHC II on Daudi cells (column head prints EC50); SM; SD 0.1549
[5] = biological target: T2, human PD-1 expressed on the surface of …; assay: FACS saturation binding to NSO cells expressing PD-1; SM; SD 0.4890
[6] = biological target: T2, human PD-1 expressed on the surface of …; assay: FACS: inhibition of sPD-L1 binding to PD-1 on NSO cells; SM; SD 0.1302
[7] = biological target: T3, human LAG-3 expressed on NSO cells (human, UniProt P18627 29-525); assay: FACS saturation binding to NSO cells expressing LAG-3; SM; SD 0.0547
T3 sequence: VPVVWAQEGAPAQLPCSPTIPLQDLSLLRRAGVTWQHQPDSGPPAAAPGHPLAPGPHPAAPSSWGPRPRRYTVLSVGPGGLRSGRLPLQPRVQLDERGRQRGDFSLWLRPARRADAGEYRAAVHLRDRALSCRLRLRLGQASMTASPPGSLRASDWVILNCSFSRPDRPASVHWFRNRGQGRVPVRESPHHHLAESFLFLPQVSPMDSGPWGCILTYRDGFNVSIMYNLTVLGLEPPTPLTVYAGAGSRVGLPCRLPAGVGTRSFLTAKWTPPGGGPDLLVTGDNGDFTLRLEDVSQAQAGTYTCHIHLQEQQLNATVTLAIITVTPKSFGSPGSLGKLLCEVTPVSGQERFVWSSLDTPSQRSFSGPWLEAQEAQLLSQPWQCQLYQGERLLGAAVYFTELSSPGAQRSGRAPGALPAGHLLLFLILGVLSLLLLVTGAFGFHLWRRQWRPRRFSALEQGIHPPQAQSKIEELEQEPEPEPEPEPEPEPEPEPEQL

[8] = biological target: T2, human PD-1 expressed on the surface of …; assay: FACS: inhibition of sPD-L2 binding to PD-1 on NSO cells; SM; SD 0.3125
[9] = biological target: T3, human LAG-3 expressed on NSO cells; assay: FACS saturation binding to NSO cells expressing LAG-3; single experiment
[10] = biological target: T2, human PD-1 expressed on the surface of …; assay: FACS: inhibition of sPD-L2 binding to PD-1 on NSO cells; SM; SD 3.6847
[11] = biological target: T2, human PD-1 expressed on the surface of …; assay: FACS saturation binding to NSO cells expressing PD-1; single experiment
[12] = biological target: T2, human PD-1 expressed on the surface of …; assay: FACS: inhibition of sPD-L1 binding to PD-1 on NSO cells; SM; SD 0.1018
[13] = biological target: T1, biotinylated-soluble human LAG-3-Fc …; assay: FACS: inhibition of shLAG-3-Fc binding to MHC II on Daudi cells (column head prints EC50); SM; SD 4.9817
[14] = biological target: T1, biotinylated-soluble human LAG-3-Fc …; assay: FACS: inhibition of shLAG-3-Fc binding to MHC II on Daudi cells (column head prints EC50); SM; SD 0.2176
[15] = biological target: T3, human LAG-3 expressed on NSO cells; assay: FACS saturation binding to NSO cells expressing LAG-3; SM; SD 0.1969

T2 sequence (Q15116 21-288): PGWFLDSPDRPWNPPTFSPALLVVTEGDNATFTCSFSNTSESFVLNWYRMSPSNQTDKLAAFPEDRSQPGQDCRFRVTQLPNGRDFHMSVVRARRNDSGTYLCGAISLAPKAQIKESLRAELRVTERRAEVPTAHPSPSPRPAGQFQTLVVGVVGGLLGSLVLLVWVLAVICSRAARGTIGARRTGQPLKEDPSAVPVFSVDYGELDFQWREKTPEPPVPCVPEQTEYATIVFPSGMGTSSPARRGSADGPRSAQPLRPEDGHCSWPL

B1: BSAB A (bispecific antibody)
heavy 1: QVQLVQSGAEVKKPGASVKVSCKASGYSFTSYWMNWVRQAPGQGLEWIGVIHPSDSETWLDQKFKDRVTITVDKSTSTAYMELSSLRSEDTAVYYCAREHYGTSPFAYWGQGTLVTVSSASTKGPSVFPLAPSSKSTSGGTAALGCLVKDYFPEPVTVSWNSGALTSGVHTFPAVLQSSGLYSLSSVVTVPSSSLGTQTYICNVNHKPSNTKVDKRVEPKSCEKTHTCPECPAPEAAGGPSVFLFPPKPKDTLMISRTPEVTCVVVDVSHEDPEVKFNWYVDGVEVHNAKTKPREEQYNSTYRVVSVLTVLHQDWLNGKEYKCKVSNKALPAPIEKTISKAKGQPREPQVYTLPPSREEMTKNQVSLTCEVKGFYPSDIAVEWESNGQPENNYKTTPPVLDSDGSFFLYSKLTVDKSRWQQGNVFSCSVMHEALHNHYTQKSLSLSPG
light 1: EIVLTQSPATLSLSPGERATLSCRASESVDNYGMSFMNWFQQKPGQPPKLLIHAASNQGSGVPSRFSGSGSGTDFTLTISSLEPEDFAVYFCQQSKEVPYTFGGGTKVEIKRTVAAPSVFIFPPSDEQLKSGTASVVCLLNNFYPREAKVQWKVDNALQSGNSQESVTEQDSKDSTYSLSSTLTLSKADYEKHKVYACEVTHQGLSSPVTKSFNRGEC
heavy 2: QVQLVQSGAEVKKPGASVKVSCKASGYTFTNYGMNWVRQAPGQGLEWMGWINTYTGESTYADDFEGRFVFSMDTSASTAYLQISSLKAEDTAVYYCARESLYDYYSMDYWGQGTTVTVSSASTKGPSVFPLAPSSKSTSGGTAALGCLVKDYFPEPVTVSWNSGALTSGVHTFPAVLQSSGLYSLSSVVTVPSSSLGTQTYICNVNHKPSNTKVDKRVEPKSCRKTHTCPRCPAPEAAGGPSVFLFPPKPKDTLMISRTPEVTCVVVDVSHEDPEVKFNWYVDGVEVHNAKTKPREEQYNSTYRVVSVLTVLHQDWLNGKEYKCKVSNKALPAPIEKTISKAKGQPREPQVYTLPPSREEMTKNQVSLTCLVKGFYPSDIAVEWESNGQPENNYKTTPPVLDSDGSFFLYSRLTVDKSRWQQGNVFSCSVMHEALHNHYTQKSLSLSPG
light 2: DIVMTQTPLSLSVTPGQPASISCKSSQSLLHSDAKTYLNWLLQKPGQPPERLIYLVSELDSGVPDRFSGSGSGTDFTLKISRVEAEDVGVYYCWQGTHFPYTFGGGTKVEIKRTVAAPSVFIFPPSDEQLKSGTASVVCLLNNFYPREAKVQWKVDNALQSGNSQESVTEQDSKDSTYSLSSTLTLSKADYEKHKVYACEVTHQGLSSPVTKSFNRGEC
B1 gave an IC50 [1] of 710 nM, an IC50 [2] of 4880 nM and an IC50 [3] of 2160 nM.

B2: DART I (bispecific antibody, human IgG4 S228P)
chain 1: DIQMTQSPSSLSASVGDRVTITCRASQDVSSVVAWYQQKPGKAPKLLIYSASYRYTGVPSRFSGSGSGTDFTLTISSLQPEDFATYYCQQHYSTPWTFGGGTKLEIKGGGSGGGGQVQLVQSGAEVKKPGASVKVSCKASGYSFTSYWMNWVRQAPGQGLEWIGVIHPSDSETWLDQKFKDRVTITVDKSTSTAYMELSSLRSEDTAVYYCAREHYGTSPFAYWGQGTLVTVSSGGCGGGEVAACEKEVAALEKEVAALEKEVAALEKESKYGPPCPPCPAPEFLGGPSVFLFPPKPKDTLYITREPEVTCVVVDVSQEDPEVQFNWYVDGVEVHNAKTKPREEQFNSTYRVVSVLTVLHQDWLNGKEYKCKVSNKGLPSSIEKTISKAKGQPREPQVYTLPPSQEEMTKNQVSLTCLVKGFYPSDIAVEWESNGQPENNYKTTPPVLDSDGSFFLYSRLTVDKSRWQEGNVFSCSVMHEALHNHYTQKSLSLSLG
chain 2: EIVLTQSPATLSLSPGERATLSCRASESVDNYGMSFMNWFQQKPGQPPKLLIHAASNQGSGVPSRFSGSGSGTDFTLTISSLEPEDFAVYFCQQSKEVPYTFGGGTKVEIKGGGSGGGGQVQLVQSGAEVKKPGASVKVSCKASGYTFTDYNMDWVRQAPGQGLEWMGDINPDNGVTIYNQKFEGRVTMTTDTSTSTAYMELRSLRSDDTAVYYCAREADYFYFDYWGQGTTLTVSSGGCGGGKVAACKEKVAALKEKVAALKEKVAALKE
With B2 the IC50 [4] was 486 nM, the EC50 [5] was 1320 nM and the IC50 [6] was 836 nM. The EC50 [7] was 532 nM and the IC50 [8] was 1290 nM.

B3: DART H (bispecific antibody)
chain 1: EIVLTQSPATLSLSPGERATLSCRASESVDNYGMSFMNWFQQKPGQPPKLLIHAASNQGSGVPSRFSGSGSGTDFTLTISSLEPEDFAVYFCQQSKEVPYTFGGGTKVEIKGGGSGGGGQVQLVQSGAEVKKPGASVKVSCKASGYTFTNYGMNWVRQAPGQGLEWMGWINTYTGESTYADDFEGRFVFSMDTSASTAYLQISSLKAEDTAVYYCARESLYDYYSMDYWGQGTTVTVSSGGCGGGEVAALEKEVAALEKEVAALEKEVAALEKGGGDKTHTCPPCPAPEAAGGPSVFLFPPKPKDTLMISRTPEVTCVVVDVSHEDPEVKFNWYVDGVEVHNAKTKPREEQYNSTYRVVSVLTVLHQDWLNGKEYKCKVSNKALPAPIEKTISKAKGQPREPQVYTLPPSREEMTKNQVSLWCLVKGFYPSDIAVEWESNGQPENNYKTTPPVLDSDGSFFLYSKLTVDKSRWQQGNVFSCSVMHEALHNHYTQKSLSLSPGK
chain 2: DIVMTQTPLSLSVTPGQPASISCKSSQSLLHSDAKTYLNWLLQKPGQPPERLIYLVSELDSGVPDRFSGSGSGTDFTLKISRVEAEDVGVYYCWQGTHFPYTFGGGTKVEIKGGGSGGGGQVQLVQSGAEVKKPGASVKVSCKASGYSFTSYWMNWVRQAPGQGLEWIGVIHPSDSETWLDQKFKDRVTITVDKSTSTAYMELSSLRSEDTAVYYCAREHYGTSPFAYWGQGTLVTVSSGGCGGGKVAALKEKVAALKEKVAALKEKVAALKE
chain 3: not shown
For B3, the EC50 [9] was 2380 nM, the IC50 [10] was 6210 nM and the EC50 [11] was 4530 nM. The EC90 [11] was 22700 nM, the IC50 [12] was 3400 nM and the IC50 [13] was 2900 nM.

B4: hLAG-3 mAb 1 (1.4) IgG4 (P) (antibody, V domains shown)
VH: QVQLVQSGAEVKKPGASVKVSCKASGYTFTNYGMNWVRQAPGQGLEWMGWINTYTGESTYADDFEGRFVFSMDTSASTAYLQISSLKAEDTAVYYCARESLYDYYSMDYWGQGTTVTVSS
VL: DIVMTQTPLSLSVTPGQPASISCKSSQSLLHSDAKTYLNWLLQKPGQPPERLIYLVSELDSGVPDRFSGSGSGTDFTLKISRVEAEDVGVYYCWQGTHFPYTFGGGTKVEIK
B4 gave an IC50 [14] of 482 nM and an EC50 [15] of 1010 nM.
